Experiments:
Assay in all cases: cell-based or functional assay
[1] = molecular target: T1, HLA-A2/MAGE-A4 peptide MHC (pMHC) complex on cells (human)
[2] = molecular target: H8A (human)
[3] = molecular target: T9A (human)
[4] = molecular target: V10A (human)
[5] = molecular target: Y3A (human)
[6] = molecular target: G1A (human)
[7] = molecular target: D4A (human)
[8] = molecular target: T1, HLA-A2/MAGE-A4 peptide MHC (pMHC) …; remark: listed apart in the source
[9] = molecular target: V2A (human)
[10] = molecular target: E7A (human)
[11] = molecular target: R6A (human)
[12] = molecular target: G5A (human)
[13] = molecular target: T1, HLA-A2/MAGE-A4 peptide MHC (pMHC) …; remark: listed apart in the source
[14] = molecular target: SLC45A1 (human)
[15] = molecular target: ARF1 (human)
[16] = molecular target: GAPDHS (human)
[17] = molecular target: MAGEB2 (human)
[18] = molecular target: HLA-A2 with peptide MAGB6 on T2 cells (human)
[19] = molecular target: PIGG (human)
[20] = molecular target: URB1 (human)
[21] = molecular target: ARF3 (human)
[22] = molecular target: DPYSL3 (human)
[23] = molecular target: UNC80 (human)
[24] = molecular target: CRMP1 (human)
[25] = molecular target: EDC3 (human)
[26] = molecular target: PKP1 (human)
[27] = molecular target: KEAP1 (human)
[28] = molecular target: DPYSL4 (human)
[29] = molecular target: UBE2V2 (human)
[30] = molecular target: KDM1A (human)
[31] = molecular target: BNRF1 (human)
[32] = molecular target: FBXO34 (human)
[33] = molecular target: CCS (human)
[34] = molecular target: pfkA (human)
[35] = molecular target: gutQ (human)
[36] = molecular target: VPS13D (human)
[37] = molecular target: DYNC1H1 (human)
[38] = molecular target: MTOR (human)
[39] = molecular target: T1, HLA-A2/MAGE-A4 peptide MHC (pMHC) …; remark: listed apart in the source

B1: Molecule A (bispecific antibody, V domains shown)
VH 1: YVQLVESGGGLVKPGGSLRLSCAAPLPFTGLDMSWVRQAPGKGLEWVGSISPKGGSTYYNDNVLGRFTISRDNSKNTLYLQMNSLRAEDTAVYYCARDWGFFDLWGQGTLVTVSS
VL 1: AIQMTQSPSSLSASVGDRVTITCRASQSISNYLAWYQQKPGKAPKLLIYDANAHENDVPSRFSGSGSGTDFTLTISSLQPEDFATYYCQQYSSHPYTFGQGTKLEIK
VH 2: not shown
VL 2: QAVVTQEPSLTVSPGGTVTLTCGSSTGAVTTSNYANWVQEKPGQAFRGLIGGTNKRAPGTPARFSGSLLGGKAALTLSGAQPEDEAEYYCALWYSNLWVFGGGTKLTVL
[1]
  EC50 [pM], T-cell mediated lysis of A-375 cells, 24 h: 1210 pM
  EC50 [pM], T-cell mediated lysis of C-33A cells, 24 h: 225 pM
  EC50 [pM], T-cell mediated lysis of IM-9 cells, 24 h: 43.4 pM
  EC50 [pM], T-cell mediated lysis of NCI-H1755 cells, 24 h: 9.4 pM
  EC50 [pM], T-cell mediated lysis of NCI-H2023 cells, 24 h: 2090 pM
  EC50 [pM], T-cell mediated lysis of UMUC-3 cells, 24 h: 775 pM
[2]
  EC50, Jurkat-NFAT activation: 0.044 nM
[3]
  EC50, Jurkat-NFAT activation: 0.0383 nM
[4]
  EC50, Jurkat-NFAT activation: 0.029 nM
[5]
  EC50, Jurkat-NFAT activation: 5.27 nM
[6]
  EC50, Jurkat-NFAT activation: 40.1 nM
[7]
  EC50, Jurkat-NFAT activation: 51.6 nM
[8]
  EC50, Jurkat-NFAT activation: 0.0105 nM
[9]
  EC50, Jurkat-NFAT activation: 0.0184 nM
[10]
  EC50, Jurkat-NFAT activation: 0.1 nM
[11]
  EC50, Jurkat-NFAT activation: 40.1 nM
[12]
  EC50, Jurkat-NFAT activation: 0.0056 nM
[13]
  EC50 [pM] 24 h, T-cell mediated lysis of MAGE-A4 peptide pulsed T2 cells: 1.2 pM
[14]
  % of MAGE-A4 signal, Jurkat-NFAT: 0.39%
[15]
  % of MAGE-A4 signal, Jurkat-NFAT: 0.67%
[16]
  % of MAGE-A4 signal, Jurkat-NFAT: 0.91%
[17]
  % of MAGE-A4 signal, Jurkat-NFAT: 0.83%
[18]
  % of MAGE-A4 signal, Jurkat-NFAT; grey (>2%): 22.4%
[19]
  % of MAGE-A4 signal, Jurkat-NFAT: 0.7%
[20]
  % of MAGE-A4 signal, Jurkat-NFAT; grey (>2%): 80.5%
[21]
  % of MAGE-A4 signal, Jurkat-NFAT: 0.92%
[22]
  % of MAGE-A4 signal, Jurkat-NFAT; grey (>2%): 32.9%
[23]
  % of MAGE-A4 signal, Jurkat-NFAT: 0.48%
[24]
  % of MAGE-A4 signal, Jurkat-NFAT: 1.74%
[25]
  % of MAGE-A4 signal, Jurkat-NFAT: 0.9%
[26]
  % of MAGE-A4 signal, Jurkat-NFAT: 0.5%
[27]
  % of MAGE-A4 signal, Jurkat-NFAT: 0.39%
[28]
  % of MAGE-A4 signal, Jurkat-NFAT: 1.68%
[29]
  % of MAGE-A4 signal, Jurkat-NFAT: 0.75%
[30]
  % of MAGE-A4 signal, Jurkat-NFAT: 0.5%
[31]
  % of MAGE-A4 signal, Jurkat-NFAT: 0.47%
[32]
  % of MAGE-A4 signal, Jurkat-NFAT: 0.46%
[33]
  % of MAGE-A4 signal, Jurkat-NFAT; grey (>2%): 3.06%
[34]
  % of MAGE-A4 signal, Jurkat-NFAT: 0.58%
[35]
  % of MAGE-A4 signal, Jurkat-NFAT: 0.64%
[36]
  % of MAGE-A4 signal, Jurkat-NFAT: 0.67%
[37]
  % of MAGE-A4 signal, Jurkat-NFAT: 0.4%
[38]
  % of MAGE-A4 signal, Jurkat-NFAT: 0.41%
[39]
  EC50 [pM], activation of Jurkat-NFAT reporter cells (luminescence, 6 h) with MAGE-A4 peptide pulsed T2 cells: 30.3 pM
